The test deals with SV1, splice variant of GHRHR, -Rluc8. The test is described as follows: FRET or BRET. For orientation: BRET reads energy transfer from a luciferase to a nearby fluorophore.
Sequence of SV1, splice variant of GHRHR, -Rluc8 (Q02643 23-423, change not shown): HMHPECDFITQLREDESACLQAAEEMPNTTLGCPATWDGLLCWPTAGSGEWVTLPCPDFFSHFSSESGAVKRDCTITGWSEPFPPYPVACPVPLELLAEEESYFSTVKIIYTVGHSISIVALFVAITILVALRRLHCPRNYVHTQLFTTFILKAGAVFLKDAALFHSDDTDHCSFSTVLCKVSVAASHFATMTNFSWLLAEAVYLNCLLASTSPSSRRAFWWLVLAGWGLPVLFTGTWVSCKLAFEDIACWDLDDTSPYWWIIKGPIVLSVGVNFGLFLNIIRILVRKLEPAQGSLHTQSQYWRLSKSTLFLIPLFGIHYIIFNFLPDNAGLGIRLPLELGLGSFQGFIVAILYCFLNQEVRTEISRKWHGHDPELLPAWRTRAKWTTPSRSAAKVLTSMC

Sequence of RAMP2-Ypet (receptor activity-modulating protein 2) (O60895 43-175): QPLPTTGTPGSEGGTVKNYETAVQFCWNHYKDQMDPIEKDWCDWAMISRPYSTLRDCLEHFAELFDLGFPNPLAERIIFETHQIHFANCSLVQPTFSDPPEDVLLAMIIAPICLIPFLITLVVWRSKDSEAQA

For “RAMP1-Ypet (receptor activity-modulating protein 1) (from UniProt O60894 27-148) (natural protein)”, the BRET50 (Kd) (intensity ratio of RAMP:receptor) was 4.4.
Turning to “RAMP2-Ypet (receptor activity-modulating protein 2) (from UniProt O60895 43-175) (natural protein)”, the BRET50 (Kd) (intensity ratio of RAMP:receptor) was determined as 2.36.

These data come from article PMC8897147.
